± gives the uncertainty stated by the source.
Test: abundance fitness (aPCA) (normalised: wild type 0, dead -1); higher = more abundant; growth selection in yeast, the domain comes from the species named
Details: Homo sapiens

Substance	abundance fitness
Transcription factor SOX-4 A121T, Q06945	-0.009 ± 0.06
Transcription factor SOX-4 D102T, Q06945	-0.149 ± 0.05
Transcription factor SOX-4 D125N, Q06945	-0.045 ± 0.22
Transcription factor SOX-4 E79V, Q06945	-0.476 ± 0.13
Transcription factor SOX-4 E88V, Q06945	-0.649 ± 0.066
Transcription factor SOX-4 I72D, Q06945	-0.595 ± 0.46
Transcription factor SOX-4 I77L, Q06945	-0.126 ± 0.055
Transcription factor SOX-4 I89L, Q06945	-0.098 ± 0.036
Transcription factor SOX-4 I106R, Q06945	-0.209 ± 0.042
Transcription factor SOX-4 K60R, Q06945	-0.294 ± 0.066
Transcription factor SOX-4 K95Q, Q06945	0.115 ± 0.14
Transcription factor SOX-4 K101T, Q06945	-0.029 ± 0.065
Transcription factor SOX-4 L99A, Q06945	0.041 ± 0.062
Transcription factor SOX-4 M78A, Q06945	-0.006 ± 0.058
Transcription factor SOX-4 M84L, Q06945	0.014 ± 0.055
Transcription factor SOX-4 M120L, Q06945	-0.047 ± 0.082
Transcription factor SOX-4 R75K, Q06945	0.07 ± 0.046
Transcription factor SOX-4 R92M, Q06945	0.128 ± 0.11
Transcription factor SOX-4 R96S, Q06945	-0.162 ± 0.17
Transcription factor SOX-4 S70A, Q06945	0.014 ± 0.057
Transcription factor SOX-4 S81N, Q06945	0.007 ± 0.056
Transcription factor SOX-4 S103L, Q06945	-0.454 ± 0.082
Transcription factor SOX-4 Y123H, Q06945	-0.03 ± 0.12

Same assay, conditions: Saccharomyces cerevisiae (strain ATCC 204508 / S288c)

Substance	abundance fitness
E3 ubiquitin-protein ligase RSP5 Y348L, P39940	-0.504 ± 0.068
E3 ubiquitin-protein ligase RSP5 Y348M, P39940	-0.354 ± 0.092
E3 ubiquitin-protein ligase RSP5 Y348P, P39940	-1.17 ± 0.086
E3 ubiquitin-protein ligase RSP5 Y348Q, P39940	-0.637 ± 0.054
E3 ubiquitin-protein ligase RSP5 Y348R, P39940	-0.919 ± 0.049
E3 ubiquitin-protein ligase RSP5 Y348S, P39940	-0.738 ± 0.077
E3 ubiquitin-protein ligase RSP5 Y348T, P39940	-0.686 ± 0.087
E3 ubiquitin-protein ligase RSP5 Y348V, P39940	-0.585 ± 0.048
E3 ubiquitin-protein ligase RSP5 Y348W, P39940	-0.147 ± 0.049
